Test results published in patent US20260184782A1 (TWIST BIOSCIENCE, published 2026).

T1: human TIGIT-Fc (human, UniProt Q495A1 22-141, limits assumed)
T1 construct: not shown: Fc; not described
T1 sequence (looked up): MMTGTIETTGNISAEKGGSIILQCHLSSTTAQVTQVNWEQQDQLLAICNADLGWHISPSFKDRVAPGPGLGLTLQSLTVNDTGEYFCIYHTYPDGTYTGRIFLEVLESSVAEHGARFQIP


Biological target: T1, human TIGIT-Fc
Experiment: CD155 competition ELISA, single point; also: test concentration or dose not given here
Description: TIGIT/CD155 inhibition of VHH-Fcs were assessed using an ELISA assay (Table 10B). Briefly, human TIGIT-Fc was coated on a plate & then incubated with VHH-Fcs and human CD155-biotin. Bound CD155-biotin was detected using a streptavidin-HRP conjugate visualized with TMB. Strong inhibitors from the single point screen were titrated to determine EC50 (Table 10C).

Binder	OD (450 nm) [OD]
TIGIT-SC85 (Fc fusion, VHH-Fc) VHH: EVQLVESGGGLVQPGGSLRLSCAASGRTFSPYTMGWFRQAPGKEREWVAGISQSGGSTAYADSVKGRFTISADNSKNTAYLQMNSLKPEDTAVYYCARDLNAMGDAYDIWGQGTLVTVSS	0.768
TIGIT-SC81 (Fc fusion, VHH-Fc) VHH: EVQLVESGGGLVQPGGSLRLSCAASGRSFKDDAMGWFRQAPGKEREFVAAISWSGDSTHYADSVKGRFTISADNSKNTAYLQMNSLKPEDTAVYYCARWVWASGTYWIDYWGQGTLVTVSS	0.553
TIGIT-SC86 (Fc fusion, VHH-Fc) VHH: EVQLVESGGGLVQPGGSLRLSCAASGIIASDSAMGWFRQAPGKEREFVAAIRWSGKETWYADSVKGRFTISADNSKNTAYLQMNSLKPEDTAVYYCARWGGVTFGGVYPLEYWGQGTLVTVSS	0.716
TIGIT-SC79 (Fc fusion, VHH-Fc) VHH: EVQLVESGGGLVQPGGSLRLSCAASGSILSINTMGWFRQAPGKEREFVAAITSAGGTTYYADSVKGRFTISADNSKNTAYLQMNSLKPEDTAVYYCARWHYDILTGYYWLDSWGQGTLVTVSS	0.8
TIGIT-SC80 (Fc fusion, VHH-Fc) VHH: EVQLVESGGGLVQPGGSLRLSCAASGNIPPINAMGWFRQAPGKEREFVAAINYSGGSTYYADSVKGRFTISADNSKNTAYLQMNSLKPEDTAVYYCARWHYDILTGYYWLDSWGQGTLVTVSS	0.508
TIGIT-SC75 (Fc fusion, VHH-Fc) VHH: EVQLVESGGGLVQPGGSLRLSCAASGFIGNYHAMGWFRQAPGKEREFVAAIRWSDGSSYYADSVKGRFTISADNSKNTAYLQMNSLKPEDTAVYYCAKWSYYGSGLYGMDVWGQGTLVTVSS	0.652
TIGIT-SC76 (Fc fusion, VHH-Fc) VHH: EVQLVESGGGLVQPGGSLRLSCAASGFTFSDYAMGWFRQAPGKERELVARIGHDGSTDYADSVKGRFTISADNSKNTAYLQMNSLKPEDTAVYYCLGGLDPWGQGTLVTVSS	0.673
TIGIT-SC89 (Fc fusion, VHH-Fc) VHH: EVQLVESGGGLVQPGGSLRLSCAASGSMSSINAMGWFRQAPGKEREFVAAINYEGDRTYYADSVKGRFTISADNSKNTAYLQMNSLKPEDTAVYYCARWTRGLVSGTYYYYMDVWGQGTLVTVSS	0.384

Next, values leading:

OD (450 nm) [OD]	Binder
0.484	TIGIT-SC88 (Fc fusion, VHH-Fc) VHH: EVQLVESGGGLVQPGGSLRLSCAASGFTFSSDWMGWFRQAPGKEREFVAAINRSGHSTSYADSVKGRFTISADNSKNTAYLQMNSLKPEDTAVYYCARWGGVTFGGVYPLEYWGQGTLVTVSS
0.666	TIGIT-SC103 (Fc fusion, VHH-Fc) VHH: EVQLVESGGGLVQPGGSLRLSCAASGTITSAVFMGWFRQAPGKEREFVAAISWSGGDTNYADSVKGRFTISADNSKNTAYLQMNSLKPEDTAVYYCARWGGITFGGVYPLDYWGQGTLVTVSS
0.438	TIGIT-SC87 (Fc fusion, VHH-Fc) VHH: EVQLVESGGGLVQPGGSLRLSCAASGSIDTINTMGWFRQAPGKEREFVAAITPSSRTTYYVDSVKGRFTISADNSKNTAYLQMNSLKPEDTAVYYCARWGGVTFGGVYPLEYWGQGTLVTVSS
0.635	TIGIT-SC99 (Fc fusion, VHH-Fc) VHH: EVQLVESGGGLVQPGGSLRLSCAASGSIFSMNTMGWFRQAPGKEREFVGAINWSGGSTIYADSVKGRFTISADNSKNTAYLQMNSLKPEDTAVYYCARWDYDILTNYYWLEYWGQGTLVTVSS
0.519	TIGIT-SC90 (Fc fusion, VHH-Fc) VHH: EVQLVESGGGLVQPGGSLRLSCAASGDTFSSKAMGWFRQAPGKEREFVAAIRWSVSSTYYADSVKGRFTISADNSKNTAYLQMNSLKPEDTAVYYCARWTRGLVSGTYYYYMDVWGQGTLVTVSS
